# Molecular target: BtAAV-10HB capsid viral proteins (VP1, VP2, VP3) assembled as the capsid (bat adeno-associated virus BtAAV-10HB)
# Test: cryo-EM structure
substance,measurement,value
"BtAAV-10HB capsid viral proteins (VP1, VP2, VP3) assembled as the capsid (complex)",stoichiometry N,60

# — paper PMC9744130
